# Assay results reported in the nanobody polyreactivity screen of Harvey et al. (2022).
# Experiment: yeast display, Sf9 membrane polyspecificity reagent, FACS + sequencing; frameworks hold sequencing errors
# Summary of the method: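 Galactose induction of a Saccharomyces cerevisiae BJ5465 synthetic nanobody display library ran 36–48 hours. The cells were then stained for 1 hour at 4 °C with 10% biotinylated, detergent-solubilized Sf9 membrane reagent, pulled down on streptavidin microbeads and FACS-sorted into low and high (top ~1%) gates on expression and reagent-binding fluorescence. Labels for polyreactivity follow the gate of origin.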
row,Sequence,polyreactivity (PSR sort gate)
1,QVQLVESGGGLVQAGGSLRLSCAASGITFVRYAMGWYRQAPGKERELVAAISSGGSTHYADSVKGRFTISRDNAKNTVYLQMNSLKPEDTAVYYCAAQWTESSLYRFGYWGQGTQVTVSS,high polyreactivity
2,QVQLVESGGGLVQAGGSLRLSCAASGITFVSYTMGWYRQAPGKERELVAAISTSGGSTYYADSVKGRFTISRDNAKNTVYLQMNSLKPEDTAVYYCAARQVRTIRKYGYWGQGTQVTVSS,high polyreactivity
3,QVQLVESGGGLVQAGGSLRLSCAASGITFVTYAMGWYRQAPGKEREFVASINWITGNTYYADSVKGRFTISRDNAKNTVYLQMNSLKPEDTAVYYCATVDWSLYLGTPPSYYWGQGTQVTVSS,low polyreactivity
4,QVQLVESGGGLVQAGGSLRLSCAASGITFVTYAMGWYRQAPGKERELVAAISRSGGRTYYADSVKGRFTISRDNAKNTVYLQMNSLKPEDTAVYYCAAERKNKYDYWGQGTQVTVSS,high polyreactivity
5,QVQLVESGGGLVQAGGSLRLSCAASGITFVYYAMGWYRQAPGKDRELVAAITSTGGSTYYADSVKGRFTISRDNAKNTVYLQMNSLKPEDTAVYYCAAVPRGTQGAMDYWGQGTQVTVSS,low polyreactivity
6,QVQLVESGGGLVQAGGSLRLSCAASGITFVYYAMGWYRQAPGKERELVAAISKNGGSTYYADSVKGRFTISRDNAKNTVYLQMNSLKPEDTAVYYCAAEEGYRWVRYNYWGQGTQVTVSS,high polyreactivity
7,QVQLVESGGGLVQAGGSLRLSCAASGITFVYYAMRSYRQAPGKERELVAAITRSGDSTYYADSVKGRFTISRDNAKNTVYLQMNSLKPEDSAVYYCAAESYYSTYQVEYYYWGQGTQVTVSS,high polyreactivity
8,QVQLVESGGGLVQAGGSLRLSCAASGITFWANAMGWERQAPGKERELVASIRSSGGSTYYADSVKGRFTISRDNAKNTVYLQMYSLKPEDTAVYYCYAKRTGPWFLHVPVYYWGQGTQVTVSS,low polyreactivity
9,QVQLVESGGGLVQAGGSLRLSCAASGITFWLYAMGWYRQAPGKERELVAAISYSGGSTYYADSVKGRFTISRDNAKNTVYLQMNSLKPEETEVYYCNTGSRYRPNRRYGYWGQGTQVTVSS,high polyreactivity
10,QVQLVESGGGLVQAGGSLRLSCAASGITFWNNAKGWYRQAPGKEREFVATISSNGGRTYYADSVKGRFTISRDNAKNTVYLQMNSLKPEDNAVYYCNAARRAYGYNYWGQGTQVTVSS,low polyreactivity
11,QVQLVESGGGLVQAGGSLRLSCAASGITFWPYALGWYRPAPGKERELVAAIRASVGRTYYADSVKGRFTISRDNAKNTVYLQMNSLKPEDTAVYYCNAYGRYGKFRVEYDYWGQGTQVTVSS,low polyreactivity
12,QVQLVESGGGLVQAGGSLRLSCAASGITFWRNAMGWYRQAPGKESELVAAISWSVGRTYYADSVKGRFTISRDNAKNTVYLQMNSLKPEDTAFYYCIARWRSGPRAYDYWGQGTQVSVSS,high polyreactivity
13,QVQLVESGGGLVQAGGSLRLSCAASGITFWRTAMGWYRQAPGKEREFVAAITWTGGRTYYADSVKGRFTISRDNAQNTVYLQMNSLKPEDTAVYYCATGQSRDYYWGQGTQGTVSS,high polyreactivity
14,QVQLVESGGGLVQAGGSLRLSCAASGITFWTYAMGWYRQAPGKERELVAAISKSGGSTYYADSVKGRFTISRDNAKNTVYLQMNSLKPEDTAVYYCAAKGLRYRDIDYDYWGQGTQVTVSS,low polyreactivity
15,QVQLVESGGGLVQAGGSLRLSCAASGITFWWYAMGWYRQAPGKERELVAAITGGGSTNYADSVKGRFTISRDNAKNTVYLQMNSLKPEDTAVYYCAATGSPARNWDTVTGYYYWGQGTQVTVSS,low polyreactivity
16,QVQLVESGGGLVQAGGSLRLSCAASGITFYDYTMVWYRQAPGKESELVAVITSAGSTYYADSVKGRFTISRDNAKNTVYLQMNSLKPEDTAVYYCAAVIVSRGRKYRLDYWGQGTQVTVSS,high polyreactivity
17,QVQLVESGGGLVQAGGSLRLSCAASGITFYEYAMGCYRQAPGTERDFVAAIDHGDSSTYYADSVKGRFTISRDNAKNTVYLQMNSLKPEDTAVYYCNADPYYDYSLNWGDYWGQGTQVTVSS,low polyreactivity
18,QVQLVESGGGLVQAGGSLRLSCAASGITFYFNAIGWYRQAPGKDRELVAAIAWPGGSTYYADSVKGRFTISRDNAKHTVFLQMNSLKPEDTAVYYCNGVFRYWYADSWFGAYDYWGQGTQVTVSS,high polyreactivity
19,QVQLVESGGGLVQAGGSLRLSCAASGITFYFNAMGWYRQAPGKEREMVAAISWPGGSTYYADSVKGRFTISRDNAKNTVYLQMNRLKPEDTAVYYCAAEAYFELSGGGLEYGYDYWGQGTQVTVSS,high polyreactivity
20,QVQLVESGGGLVQAGGSLRLSCAASGITFYFYAMGWYRQAPWKERELVAAITSTGTSTYYADSVKGRFTISRDNAKNTVYLQMNILKPEDTAVYYCNVTDYHTLWYDPEYYWGQGTQVTVSS,low polyreactivity

row,Sequence,polyreactivity (PSR sort gate)
1,QVQLVESGGGLVQAGGSLRLSCAASGITFYGNAMGWYRQAPGKERELVAGIRSSGGDTYYADSVKGRFTISRDNAKNTVYLQMNSLKPEDTAVYYCAADFDWFIWGYDYWGQGTQVTVSS,low polyreactivity
2,QVQLVESGGGLVQAGGSLRLSCAASGITFYGNAMGWYRQAPGNERELVAAITFSGGITYYADSVKGRFTISRDNAKNTVYLQMNSLKPEDTAVYDCATDPIGGWTRPQRYGDDYWGQGTQVTVSS,low polyreactivity
3,QVQLVESGGGLVQAGGSLRLSCAASGITFYGYAMGWYIQAPGKERELVASITSTGSTNYADSVKGRFTISRDNAKNTVYLQMNSLKPEDTAVYYCAARYREVYRSKRKLGYWGQGTQVTVSS,high polyreactivity
4,QVQLVESGGGLVQAGGSLRLSCAASGITFYGYAMGWYRQAPGKEREFVATISKSGGITSYADSVKGRFTISRDNAKNTVYLQMNSLKPEDTAVYYCNRGKRYGGYDYWGQGSQVTVSS,low polyreactivity
5,QVQLVESGGGLVQAGGSLRLSCAASGITFYGYAMGWYRQAPGKERELVAAISKRGGSTYYADSVKGRFTISRDNAKNTVYLQMNSLKPEDTAVYYCNARPGKSQGWRYDYWGQGTQVTVSS,high polyreactivity
6,QVQLVESGGGLVQAGGSLRLSCAASGITFYGYAMGWYRQAPGKERELVAAISKSGGSTHYADSVKGRFTISRDNAKNTVYLQMNSLKPEDTAVYYCATEGYYYYTSYDYWGQGTQVTVSS,low polyreactivity
7,QVQLVESGGGLVQAGGSLRLSCAASGITFYGYAMGWYRQAPGKERELVATISSGGGTNYADSVKGRFTISRDNAKNTVYLQMNSLKPEDTAVYYCATDLSTVDYNYWGQGTQVTVSS,low polyreactivity
8,QVQLVESGGGLVQAGGSLRLSCAASGITFYGYDMGWFRQAPGKERELVASSTYYADSVKGRFTISRDNAKNTVYLQMNSLKPEDTAVYYCITVYYQWVTYGYWGQGTQVTVSS,high polyreactivity
9,QVQLVESGGGLVQAGGSLRLSCAASGITFYGYDMGWYIQAPGKERELVAAISRSGGSTYYADSVKGRFTISRDNAKNTVYLQMNSLKPEDTAVYYCAADKQGYRGRTPYRYYSWGQGTQVTVSS,high polyreactivity
10,QVQLVESGGGLVQAGGSLRLSCAASGITFYIYAMGCYRHAPGKERELVAAISSTGGSTYYADSVKGSFTISRDNAKNTVYLQMNSLKPEDNAVYYCNAVFRGTGDYWGQGTQVTVSS,high polyreactivity
11,QVQLVESGGGLVQAGGSLRLSCAASGITFYKNAMGWYRPAPGKERELVAAISGRGGTTYYADSVKGRFTLSRDNAKNTVYVQMNSLKPEDTAVYYCNTVRWAWPYLKFDYWGQGTQVTVSS,high polyreactivity
12,QVQLVESGGGLVQAGGSLRLSCAASGITFYKYDMGCYRQATGKERELVAAISFRGGNTNYADSVKGRFTISRDNAKNTVYLQMTSLKPEDTAVYYCAAYSYTWFYEYGYWGLGTQVTVSS,high polyreactivity
13,QVQLVESGGGLVQAGGSLRLSCAASGITFYLNAMGWYRQAPGKDRELVADITVSGGSTYYADSVKGRFTISRDNAKNTVYLQMNSLKPEDTAVYYCAADLTISYSQEYYYWGQGTQVTVSS,low polyreactivity
14,QVQLVESGGGLVQAGGSLRLSCAASGITFYLNAMGWYRQAPGKERELVADITVSGGSTYYADSVKGRFTISRDNAKNTVYLQMNSLKREDTAVYYCAADLTISYSQEYYYWGQGTQVTVSS,low polyreactivity
15,QVQLVESGGGLVQAGGSLRLSCAASGITFYLYAMGWYRQAPGKERELVASITTDDSTNYADSVKGRFTISRDNAKNTVYLLMNSLKPEDTAVYYCATASYHRHHHGYDYWGQGTQVTVSS,low polyreactivity
16,QVQLVESGGGLVQAGGSLRLSCAASGITFYLYVMGWYRQAPGKERELVAAISSGGSTYYADSVKGRFTISRDNAKNTVYLQMNSLKPEDTAVYYCAADVARYLHYSYHEDYYWGQGTQVTVSS,low polyreactivity
17,QVQLVESGGGLVQAGGSLRLSCAASGITFYPYAMGWYRQAPGKERELVAAISRRGGSTNYADSVKGRFTISRDNAKNTVYLQMNSLKPEDTAVYYCNRDYPIGYRQDPVYYWGQGSQVTVSS,high polyreactivity
18,QVQLVESGGGLVQAGGSLRLSCAASGITFYQYAMGWYRQAPGTETELVAGISYSGGSTYYADSVKGRFTISRDNAKNTVYLQMNSLKPEDTAVYYCAAVQPVGLYPRTKYYYWGQGTQVTVSS,high polyreactivity
19,QVQLVESGGGLVQAGGSLRLSCAASGITFYRNARGWYRQAPGNEMELVAAITWNGGRTYYADSVKGRVTISRDNAKNTVDLQMNSLKPEDTAVYDCAADSGTRNLASYRYYYWGQGTLVTVSS,low polyreactivity
20,QVQLVESGGGLVQAGGSLRLSCAASGITFYRYAMGWYRQAPGKERALVAAISWRSGSTNYADSVKGRFTISRDNAKNTVYLQMNSLKPADTAVYYCAARVADYPLFGGSSYNRMEYWGQGTQVTVTS,low polyreactivity
